Measured values: the DeepSol protein solubility set

Test: soluble on expression in E. coli; label from the status in PepcDB or PDB records

| Sequence | soluble on expression in E. coli |
| --- | --- |
| MGSDKIHHHHHHMLLAVDHTTHYVFSGPVSHGLQRLRLAPKSTAGQRVVEWSMQFEGARLQAEYDDANNNRVSLISFDPGVSQVTIRCEGLVDTNDEAGIIGKHAGFMPMWQFLEQTDLTRAGARTRALLAALPHEDSTLVKLHALSALVRERVEYASGHTDVDTTAEGALAAGRGVCQDHAHIFIGAARALGIPARYACGYLMMDDRVEQDAGHAWAEAHVESLGWVGFDVSNGISPDARYIRVATGRDYRDAAPVTGIRYGAMDEAMHVRLAVQQQRVEQ | not soluble |
| PFKEVSPNSFLLDDSHALSQLLKKSYRWYSPVFSPRNVPRFADVSSITESPETLKAIRDFLVQRYRAMSPAPTHILGFDARGFLFGPMIAVELEIPFVLMRKADKNAGLLIRSEPYEKEYKEAAPEVMTIRYGSIGKGSRVVLIDDVLATGGTALSGLQLVEASDAVVVEMVSILSIPFLKAAEKIHSTANSRYKDIKFISLLSDDALTEENCGDSKNYTGPRVLSCGDVLAEHPH | soluble |
| MSGEESMPDEEQKQSEEEEEMIRKRTLAMRKKVEEIMRNGAGLVRESNGLPKAGADYELYNSYPTFNTFMKRSEQRLNALMNKVTKSIGCAMRVPDVGSSVEHYTECVIEAQDNIAERAATLHEALKKAELDEIVKVPEFITKAAPTNRKTEAEVSAAMRTFSANIGTVLAEKFRERREEAAQMVVLEKPQKTYNISSDNSQAPFSSKLTVKHHAIEKRTGIVLHDDDESGRRDWISAETETEEEHPYIAEILHFKVPEAQLKSAECLKFTALKDTPLTMIDTKEKLEALTKTLNSVKEFAVDLEHHQMRSYLGLTCLIQISTRDEDFIIDPFPIWDHVGMLNEPFANPRILKVFHGSDSDVLWLQRDYGVHVVNLFDTYVAMKKLKYPKFSLAYLTLRFADVVLDKQYQLADWRARPLRNAMINYAREDTHYLLYSYDMLREQLLKQDTKDLANVYSESSDLCIKVYKKPVFNPKGYLTEIKFRFTLNTRQDYALTHLFKWRDVVARAEDESPHFVLPNHMMLSLSETLPRDVGGIYACCNPLPYFVKQRTGDILKIIVEARDVKLEKVGLSAKERNDAQEARGVMNDTMDHITSVLKSKIDFSHTRFDEERGEIYIDKTDEGMDIELKDHKESLLSVLQTAEIPSVETMIVVEKGKKSDNQKVKKLLNELDKFVTPFECYQMMMITKEKQEEEERKEAERKKLEEGDLPKTMFSHHDAPINRKPEFDAKLLNVDTLKLVPDDPNKPKDPEPSPMEESSSEPQIFDPSRFTDDQLLSKKAMKRKRDAARRNIDVSVVLGESSSSSDPKKKKSDDDAPVEDFDYEKADSSAFEKPVRDNNADFDPFHQKYRLKNKTKKNMAMKKSSNRQGTINYKK | not soluble |
| YRRFEKEKLKSQWNNDNPLFKSATTTVMNPKFAES | soluble |
| MELTVKDIQTWLDNYSKVIEEKKDYLSELDTPIGDGDHGNNMARGMAEYKIAFDKKVPTTITETFKVLSMALISKVGGASGPLYGTAFMNMTKATKDLETISSPEQLKEIVQQGLAGIQMRGKAEPGDKTMVDVWAPVAEVIGTEQFNEEKIEQFAEATKDWVAKKGRASYLGERAIGHIDPGAASSALLFEELVKVINQ | not soluble |
| MARFVVLVIDSFGVGAMKDVTLVRPQDAGANTCGHILSQLPHLQLPTLETLGLINALGYAPGDMQPSDSATWGVAELQHEGGDTFMGHQEILGTRPLPPLRMPFRDVIDRVEQALVSAGWQVERRGDDLQFLWVNQAVAIGDNLEADLGQVYNITANLSVISFDDAIKIGRIVREQVQVGRVITFGGLLTDSQRILDAAESKEGRFIGINAPRSGAYDNGFQVVHMGYGVDEKVQVPQKLYEAGVPTVLVGKVADIVNNPYGVSWQNLVDSQRIMDITLNEFNTHPTAFICTNIQETDLAGHAEDVARYAERLQVVDRNLARLVEAMQPDDCLVVMADHGNDPTIGHSHHTREVVPVLVYQQGMIATQLGVRTTLSDVGATVCEFFRAPPPQNGRSFLSSLRFAGDTLGKWYYLNSNGAMVTGSQTIDGKVYNFASSGEWI | not soluble |
| MGSDKIHHHHHHMRETPFRLLLDARACRKKGSAAILQRQRERLVEMVTYARTCSPYYRQLYQGLPARITDPRLLPVTTKAALMAHFDDWVTDPAVTLEGTQSFVADPSLLGEKFLNRYTAATTSGTTGTRGLFLLDTRTLAVSKALTFRMLSSWLTPADLMGIIRGRGRIAMVVATGGHFASAAAAAALRKGPARHSVRVFPVQTPIPDLVAQLNSFRPALLAPYASTGRLLASEQEAGRLTIQPVAVILSAEGLPAGEYARISGAFGAKVRQGYAATECPFLSYSCQEGWLHVNSDWAILEPVDANHEPVPPGQPSHTVLLSNLANRIQPILRYDLGDSVTARTDPCRCGDPTPAIHVQGRNAELLTLQGNRLAVAVTPLTLSTALDRVQGLSKGQIIQTGPQSLSLRLQPAAGADPENVWESARSEITRALTSHGLGNVTITRDAGPPLLTPGGKHRTVVPLPP | not soluble |
| MAHHHHHHMLLFKRPHLRACESHADIAVDLAPLSQLRNYAEFEELLREELQKIYGNAPAEFHGVITYSTRDAPQSFRGCFTERQLETLHQYDAAVEKINHLSSEYRVALEEHERLVEGNKDRKPTQKRIREEEKSRKRLRAMKREVVAAEYNKECLSLKLKNLFSIDVIRVPLH | soluble |
| GPGSMLRGCAAACGQCRESASAVYGQALWLLLRPWTRSPSLPSSTHARLGLRRALGTVTSSLSSSSSCATVHHPTRWVSRKSIEEQLPSNIKVDPNASATAGRENEGLGRDAFSSGINGIYGNRAESAMRGMLGPQGQADARESRAVPILGRASVQGTKYTLDRSTVFEHWRFHCSEPVGWHLSKLGSTTCKMVNDVNEAVESLQLQIIKGCNVFEIDGAASEVHQSIARGIYEALQAFELDRSGFVMVARCGLIKQPRFQDEITRVEASNTAAVRNRIIPIFERYKASSLPSTSLKSGFRISELDDSQLARLNLRRVDRTTAAGLSPDWLDAFFTNVAYNTRLECIDVLLLEGMHTLFDGRPDEHVDDDILQLFVYLERQVKQGVLQYYGVCSPHLAPPVPRNYPEMPPDALVPDKYRTPPKEPATINLYRLMALAERAGGADHHFRFVQYPFNLTQHQAISSPLPYDANHTLATLCKALGLTALGYSPLEAPNLMQLPERYHNFPMEADLKALRMNFFTVCERSVLKEMEIKDTIDKGPDTLPPLEHLFVASVYLAAQRQFTNLFFFTDWANYYMTPRFRRAMTRFKEASSADLKEWAKQYEQLISDLLRMRQRMFQHKHGKQAGLVNMAIDYVSPTLARCPMLNQKAINFATYGCNVLLCGFHVSRYFHEATELNPAKDGNLPIPEEELLALCSAETVSYANVSPPHPYMLEPLMGEGKISKQPSKGAAYLVRIDPQNPKFPDIPEELQTGDSDGEAPVSADGATAALHKDEAPEKAVKE | not soluble |
| VEREVLMNGTQAVAHAAMYADVDVVAAYPIRPYTEVMDTISKLIADGELDAEFIVAEGEHGQFETVKHASLAGARTLVGSSGVGWLYAMEAIVVTATDRAPVVAIIGNRALDDPGAYGVEHNDALMVRDVGWLLVWVDTAQEAFDTALLAYRIAEDQRVLLPLGISMDGGFLTHSEQIVRLPPRELVKNFLPPYNRGKYLVHPDNPITVAPQVNEDWVMEIRRQHEEAMERARSVIVEAYEEFKKVFGRYPGSTSDLQMPE | not soluble |
| MTQFAFVFPGQGSQSVGMLAEMAANYPIVEETFAEASAALGYDLWALTQQGPAEELNKTWQTQPALLTASVALWRVWQQQGGKMPALMAGHSLGEYSALVCAGVINFADAVRLVEMRGKFMQEAVPEGTGGMSAIIGLDDASIAKACEESAEGQVVSPVNFNSPGQVVIAGHKEAVERAGAACKAAGAKRALPLPVSVPSHCALMKPAADKLAVELAKITFSAPTVPVVNNVDVKCETDAAAIRDALVRQLYNPVQWTKSVEFIAAQGVEHLYEVGPGKVLTGLTKRIVDTLTASALNEPAALSAALTQ | not soluble |
